Reference: publication PMC12056068 (Nature Communications, 2025)

Experiments:
[1] = molecular target: T1, GST-SUVH3 (Arabidopsis thaliana, UniProt Q9C5P4 1-669); assay: pull-down
T1 sequence (looked up): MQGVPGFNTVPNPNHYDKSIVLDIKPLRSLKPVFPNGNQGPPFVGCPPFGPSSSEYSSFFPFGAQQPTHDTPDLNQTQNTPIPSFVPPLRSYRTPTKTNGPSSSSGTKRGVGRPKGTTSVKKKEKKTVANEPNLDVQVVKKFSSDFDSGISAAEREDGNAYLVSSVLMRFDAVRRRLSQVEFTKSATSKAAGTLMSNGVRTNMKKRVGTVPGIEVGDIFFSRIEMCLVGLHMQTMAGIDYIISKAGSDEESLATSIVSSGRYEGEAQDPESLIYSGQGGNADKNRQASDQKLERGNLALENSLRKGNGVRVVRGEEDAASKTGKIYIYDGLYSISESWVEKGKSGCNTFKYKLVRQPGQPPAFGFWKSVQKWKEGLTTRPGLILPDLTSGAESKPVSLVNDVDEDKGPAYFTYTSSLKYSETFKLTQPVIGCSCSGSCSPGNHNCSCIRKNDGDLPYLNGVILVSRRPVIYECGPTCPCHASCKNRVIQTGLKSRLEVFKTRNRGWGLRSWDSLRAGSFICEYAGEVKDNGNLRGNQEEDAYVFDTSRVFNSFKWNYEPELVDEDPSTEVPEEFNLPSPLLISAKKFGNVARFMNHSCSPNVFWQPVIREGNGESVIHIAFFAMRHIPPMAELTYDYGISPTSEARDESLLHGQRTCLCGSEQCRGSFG

[2] = molecular target: T2, SUVH1 (Arabidopsis thaliana, UniProt Q9FF80 1-670); assay: pull-down
T2 sequence (looked up): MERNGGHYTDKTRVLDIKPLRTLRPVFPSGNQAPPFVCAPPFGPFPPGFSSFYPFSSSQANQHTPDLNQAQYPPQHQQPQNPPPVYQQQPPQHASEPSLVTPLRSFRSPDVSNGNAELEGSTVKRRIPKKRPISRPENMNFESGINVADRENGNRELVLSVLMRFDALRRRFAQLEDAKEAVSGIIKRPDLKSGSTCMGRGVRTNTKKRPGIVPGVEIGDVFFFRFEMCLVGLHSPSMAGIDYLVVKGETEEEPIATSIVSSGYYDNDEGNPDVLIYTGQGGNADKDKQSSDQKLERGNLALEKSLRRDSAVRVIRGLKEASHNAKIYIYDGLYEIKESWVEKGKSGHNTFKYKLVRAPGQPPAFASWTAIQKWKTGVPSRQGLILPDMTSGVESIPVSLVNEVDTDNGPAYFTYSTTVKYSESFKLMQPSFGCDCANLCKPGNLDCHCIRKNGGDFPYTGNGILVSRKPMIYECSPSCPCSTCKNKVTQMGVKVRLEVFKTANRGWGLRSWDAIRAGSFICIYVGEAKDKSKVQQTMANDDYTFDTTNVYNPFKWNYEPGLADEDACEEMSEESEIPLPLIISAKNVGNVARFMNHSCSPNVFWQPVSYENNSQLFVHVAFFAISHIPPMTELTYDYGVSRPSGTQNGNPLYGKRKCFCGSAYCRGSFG

B1: His-LEC2 (natural protein, Arabidopsis thaliana, UniProt Q1PFR7 1-363, looked up)
chain: MDNFLPFPSSNANSVQELSMDPNNNRSHFTTVPTYDHHQAQPHHFLPPFSYPVEQMAAVMNPQPVYLSECYPQIPVTQTGSEFGSLVGNPCLWQERGGFLDPRMTKMARINRKNAMMRSRNNSSPNSSPSELVDSKRQLMMLNLKNNVQISDKKDSYQQSTFDNKKLRVLCEKELKNSDVGSLGRIVLPKRDAEANLPKLSDKEGIVVQMRDVFSMQSWSFKYKFWSNNKSRMYVLENTGEFVKQNGAEIGDFLTIYEDESKNLYFAMNGNSGKQNEGRENESRERNHYEEAMLDYIPRDEEEASIAMLIGNLNDHYPIPNDLMDLTTDLQHHQATSSSMPPEDHAYVGSSDDQVSFNDFEWW
binding result [1]: binds | binding result [2]: binds
